A short description of this data set: soluble on expression in E. coli; label from the status in PepcDB or PDB records.
Consider “MSLHSDILVVGAGPAGLSFAAELAGSGLKVTLIERSPLTVLQNPPYDGREIALTHFSREIMQRLGMWDKIPENEIYPLRDAKVLNGRSDYQLHFPQPTEARGEPADCLGYLISNHNIRRAAYEVVSQLDNVSILTDTAVKEVKTSDNEAQVFLENGDILTARLLLAADSRFSQTRRQLGISSDMHDYSRTMFVCRMKHTLSNQHTAYECFHYGRTIALLPLEKRLTNTVITVDTDKINSVQNLSPEELAASVKEQLKGRLGDMELVSSIHHYPLVGMIAKRFYGKRSALIGDAAVGMHPVTAHGFNLGLSSADILAKLILEAEQRGQDIGAASLLEKYSSKHMLHAHPLYHGTNMMLKLFTNETAPAKLLRGLVLRAGNNFPPLKKLITKQLTGLEHHHHHH”, for which the “soluble on expression in E. coli” value was “soluble”.
Next, “MSLGDRFYDLISALHKSVRGSAPDAALYWYARILTAGGDPLYVARRLLAIASEDVGNADPRAMQVALAAWDCFSRVGAYEGERAIAQAIIYLSVAPKSNAVYTAFNTAKQQAKDLPDYDVPPHLRNAPTNLMKELGYGTEYRYAHDEPNAYAAGENYFPPELKDTQYYFPTNRGMEIQIKEKLERLREQDKSTEGHHHHHH”: “soluble”; “MAHHHHHHMLQQLNEEKNIRKALESRIREVNVSLRRYGVCIADAKEVTNESREFSEATDAFILAALEEKDTMDGDLCAKLQQQLRVKQRLTELRHQHQRKLDDMLRKYELIKTGRTTANNGAGADNNMLHPGLVDEAAAQQIKELLHRKDEEIERVIKEKEKTCDRIVKKLNKCELRIKELEATLEEERVQSTEERQELDRENRELQRYNQQLSVELETLRGQLSEMKEEMDFMERAKSAEIERWKEEAANGAGRLEEMRFKMAAYSELQKSYDRLQEQLQRTEVSLKEKSDNLENTRQMVKWSNSLLATEKQKVEQMEMMLKQQEVEMRRREEQLKSEMMNDINKQVAANNRRMQEQAAQYQELISQEQDKQKSIMKKVKSSRKETQKAAQRYDEMILENEALLSKLEELKVTSMRIFLEKQEAQRELEALRPTKHVANRRL”: “not soluble”.
As for “MKATSEELAIFVSVVESGSFSRAAEQLGQANSAVSRAVKKLEMKLGVSLLNRTTRQLSLTEEGERYFRRVQSILQEMAAAESEIMETRNTPRGLLRIDAATPVVLHFLMPLIKPFRERYPEVTLSLVSSETIINLIERKVDVAIRAGTLTDSSLRARPLFNSYRKIIASPDYISRYGKPETIDDLKQHVCLGFTEPASLNTWPIACSDGQLHEVKYGLSSNSGETLKQLCLSGNGIACLSDYMIDKEIARGELVELMADKVLPVEMPFSAVYYSDRAVSTRIRAFIDFLSEHVKTAPGGVMPIS”, the entry is “not soluble”; as for “MDRKFNSDEQWYISPLLNLATVKEEMLEVRELGEVIIDRTMDDFDSKTEKEHEMEMWKNSLSYIQGVTEEESLEAIEEVSNLDMFLEGSSDVQTRRFEDMKGDRKFLERSPLVSHKHVISREKTMKTSRQRKSAYVTSLKYDKYMLNAGANTSLFHPQCSILEKCEDDIVLIVDALMPYNRELLSSELRSSRLLKPMTKFLVRGDTLLSDLRQKFVCQSDTIVPLENGLELDPPNLDNATAVRFPSSFIFVHDTFYVDMPPNAIDISHPIRNFMLHREIYDPVEACSMEGVRIIDLKLRLGQPYIFQHSGNCEHLLVFHDLRLLHESDPWGIDKYPFTLYEKGNEKKCDICKKGHVEFVVERHELLPNTYTHFCRTCFQEFNYVHGVKTHSFIAWPYTELQTGEQRGWPFGDFEQEDD”, “not soluble”; as for “VKIELTVNGLKIQAQYQNEEIENVHKPLLHMLAALQTVNPQRRTVVFLCAPPGTGKSTLTTFWEYLAQQDPELPAIQTLPMDGFHHYNSWLDAHQLRPFKGAPETFDVAKLTENLRQVVEGDCTWPQYDRQKHDPVEDALHVTAPLVIVEGNWLLLDDEKWLELASFCDFSIFIHAPAQILRERLISRKIAGGLTRQVAEAFYARTDGPNVERVLMNSRQANLIVEMTEEGRYHFTS”, “soluble”.
Regarding “SPRPPDDPGFGPHQRLEKLDSLLSDYDILSLSNIQQHSVRKRDLQTSTHVETLLTFSALKRHFKLYLTSSTERFSQNFKVVVVDGKNESEYTVKWQDFFTGHVVGEPDSRVLAHIRDDDVIIRINTDGAEYNIEPLWRFVNDTKDKRMLVYKSEDIKNVSRLQSPKVCGYLKVDNEELLPKGLVDREPPEGKT”, the “soluble on expression in E. coli” value was “soluble”.
Consider “MGSDKIHHHHHHMPYAVTLPEFTGPLDLLLRLIERAELDITTIALASVADQYLAHVRTLEEVEPRELAEFVSMAARLILIKSRALLPRSPTTPAEAGDEDAGQLVAQLELYRRFKQAAEVLRRWQDQGRSTFVRLAPPPLLPAPAPISYRITDLLHALERRRQLQLPLAQPEPIVLAPRLTVAEVAERIRARLERTAWFDFTDLLSNDPTTEEVIVSFWAMLELLKRRAIVVEQTMLFGPILIGRGTAPIVTEPADEDEL”, for which the “soluble on expression in E. coli” value was “not soluble”.
Next, “SAEKFDHLEEHLEKFVENIRQLGIIVSDFQPSSQAGLNQKLNFIVTGLQDIDKCRQQLHDITVPLEVFEYIDQGRNPQLYTKECLERALAKNEQVKGKIDTMKKFKSLLIQELSKVFPEDMAKYRSIRGEDHPPS”: “soluble”.
Turning to “VAKPKKTQPAATAPRVDVFDAKGKPKTVDASALRIAFADGRSLLVSLPDTADGAITLVAEHADAATHAMLALRPEHHDSITLRIEAEPAAEAEDADDALAGAEMLTLDLTVQHGDALKAAARKALPKQKDIEAWIAPALFADAQLNVRFVDEEEGRTLNHTYRGKDYATNVLTFSYAETEDDPVAADIVLCCPVVEQEAKDQGKPLRAHYAHLIVHGALHAQGYDHEDPAQAEEMEGIETEVLAGLGFPDPYADR”, the “soluble on expression in E. coli” value is listed as “soluble”.
As for “GGSVLAERAGIDPTAILRDFDRGRTSTLPDGRTLREWDIVAVDKDFEIAPGIIFKGWSYNGRIPGPTLWAREGDALRIHFTNAGAHPHTIHFHGVHRATMDGTPGIGAGSIAPGQSFTYEFDATPFGTHLYHCHQSPLAPHIAKGLYGGFIVEPKEGRPPADDEMVMVMNGYNTDGGDDNEFYSVNGLPFHFMDFPVKVKQHELVRIHLINVLEYDPINSFHIHGNFFHYYPTGTMLTPSEYTDTISQVQGQRGILELRFPYPGKFMFHAHKTEFAELGWMGFFEVSA”, the entry is “soluble”.
As for “VERMYDVTPPGVVMGLAWTAMGGSTLFVETSLRRPQDKDAKGDKDGSLEVTGQLGEVMKESARIAYTFARAFLMQHAPANDYLVTSHIHLHVPEGATPKDGPSAGCTIVTALLSLAMGRPVRQNLAMTGEVSLTGKILPVGGIKEKTIAAKRAGVTCIVLPAENKKDFYDLAAFITEGLEVHFVEHYREIFDIAFPDEQAEALAVER”, the entry is “soluble”; as for “MLETRATTAKQLVQAPEQPAPQPEVAPPTTEQPAPAPAPGTTPGTENFNTPNATPETTEPRVLVSEVLVRPQSGQLTPELETQVYNVIRTQPGRTTTRSQLQEDINAIFGTGFFSNVQASPEDTPLGVRVSFIVQPNPVLSKVEIQANPGTNVPSVLPQATADEIFRAQYGKILNLRDLQEGIKELTKRYQDQGYVLANVVGAPQVSENGVVTLQVAEGVVENISVRFRNKEGQDVNEQGQPIRGRTQDYIITREVELKPGQVFNRNTVQKDLQRVFGTGLFEDVNVSLDPGTDPTKVNVVVNVVERSLEHHHHHH”, “soluble”; as for “SLEKKDTNSLKLLLIGNTGIGEYKSRAERKGLWYKLKRFLWTNEFDQTVSALAKWHAEEKADAVLGLGDFLGIPGPLSARDERFTKRWYDIFVKDAKLDIPWLMTLGEEEALVNPSASVRHHYTGEHPNWYMPNDAYTATFSFSTSMTMANGTIQHEAFNATVINVNTWNLFVGNPIANNMQSMMDRLMWLSDQLYTAVNQTTNWLIIMGHLPLVSTGPQGEQGRLQYVDDLYKNGQPRGPEAVLIQMLLSHYQVDLYVSAHDHFMEYVALEDLSKNTTTAFITSGAAVRLLDKDVGRGWIGRLRGALYPILCWSGRRILYAFHPG”, “soluble”.
With “MTVTLTCRFKLELSKDQKQQFLDIATAYTNAVNYVLEQNLKDKSTNVKKLHRLYYKTIREDFDLPAQMAINVNRDVSAMYKTLWAQFKELKRRKPDSKAVKKFWDKPPKRKSLIVKYTYNRTASFKKINGEWHASLSTLQGRIKWIPMKGWSKHFEYLKSCKIGDPILTYDKSSKTFFLLVPVTLEVQEHQPKEIVGVDVGERHIAAVASTKGTRYLIDLPEEFKQRKQHYQRLRSELMSKGTRSAKRKLARISRREKRFTENVLHIIAKKLTTSHPGARFVLEDLTQIRANRITYRGKDKEARRQSEQWPFASLQQKIEYKAKLYYGVQSEKVDPSYTSQTCPRCGHVSKENRPDHGERFVCQSCGYEEHADIVGAINIALRVLAKDQQVNLEKLLGAVVSRPDAPRLGLEHHHHHH”, the “soluble on expression in E. coli” value is given as “soluble”.
Next, “MGSDKIHHHHHHMDDGTRLGQADHAAGPRPPGVIFTMRYPSDVGFVWKTIALHRDLIARAFGGEARCILAYPQLSPTSAYQPRWSTAIQADFYDYSAENRQRLERVITDEAIRLVVFMSAQPADVDLGFLRGLGLRTVTSENNSYDHSLRQPFMKRLAKALIRRVLKRQVFDLHIANSQAQYDFLRGFAQLPASRLRAVRNGVDTDHFQPGERTGACSTLGLDPDRLWIMAASQARPEKRLERVLEVIRAVKDARPALPIGFFFVGEGENLAEWRQIALGLPDAETYRFFGRQNDLRPYYQAASVFIHGAFRESFGLVIAEAMASGLPVVATHAHGPAEIIAEGETGRLVGRDDWEGLGKAVIEYLDDAELRRTHGLAGRARCVALFSITRQAQEFADLLRPFLKDGAGAPY”: “not soluble”; “MGSDKIHHHHHHQEAKGSADETKVEVQYLDPRDPFEGFNRAMWDFNYLYLDKYILKPVAHGYNDYLPLPVKDGVHNFTTNFDEPSSLVNNILQGKWSWAANAGGRFTVNTSLGILGIFDVAQMMGMERKQDDFSEVLGFYGVPNGPYFMAPFFGPFVTREIASDWVDGLYFPLSELTMWQSALKWGMKSLHNRAEAIDRERLLDNALDPYAFVKDAYFQHVDYKVYDGNVPTTQEDDELLDEFMEELE”: “not soluble”.
Next, “MISSPHKLTGDIMTKRTKRTRRLFSAEFKLEAAQLVLDQNYSVTEAAQAMNVGKSTMDKWVRQLREERQGKTPKASPMTPEQIEIRELKKKLARLEEHNEILKKATALLMSDSLNNSLEHHHHHH”: “soluble”; “MGSDKIHHHHHHMANNIQGFVMIGAQAIVFSITNLRTLKTIERGRYPVAIGDDFYAEHEILPDTVDAIVQAFDAINQIFKDYGVPTVNVFASTSWAEADNAEFVRDQLYTRTGWLIKTTSLSEEAFFRTQAIMVKFPQFKSITQKGTVLIDISSGSVELTTFSNGVFGFSRNLSLGPLRVYEIMSDVQRSVTNYVEVMRDYIDSRLLDFMRLLPQGVEYTNMILMGSNLSIFQNIIPEGKHQVETDRPGFDLLYDEVTKASDQYLADTYDLTSDQTSLVLPTVLLVYRLVETLNSQSIWISDLKAIDGIEVNAAHEGGFKKLGFDPNEEIVISANNLAERYQVDEAHMQATRTVALQLFDRLKKLHGMGKRERLLLEVAATVSDIGSYIETHKHYAHSNYIIKASEIMGLNDLEVTMVATITRFHSSITPQSDLKNFPTMSTENRLVVAKLSALLRVADSLDASRQQKIQQLRVSVKPNEVLLTARADDDIELERWTLARKGKFFSEVFGLGLELKGRNIL”: “not soluble”; “MSIKPIDFQMMIPKTAEISKIQNDQQQKSVVVNEQQTNITRQKFEENVNTVHARENAEKVRIDSEQKKKKEERGRKKNPNRAKYGTKGEKEPEEQTSVIDIRL”: “not soluble”.

Values taken from the DeepSol protein solubility set.
